In patent US20230219996A1:

Assays:
[1] = molecular target: SARS-CoV-2 spike (B.1.351, South Africa, Beta) (SARS-CoV-2); assay: MSD V-PLEX ACE2 kit, sVNT, positive control; competitor ACE2 (NHP study)
[2] = molecular target: SARS-CoV-2 spike (P.1, Brazil, Gamma) (SARS-CoV-2); assay: as above
[3] = molecular target: SARS-CoV-2 spike (B.1.1.7, UK, Alpha) (SARS-CoV-2); assay: as above
[4] = molecular target: SARS-CoV-2 spike (B.1.351, South Africa, Beta) (SARS-CoV-2); assay: MSD V-PLEX ACE2 kit, sVNT, positive control; competitor ACE2 (mouse study)
[5] = molecular target: SARS-CoV-2 spike (P.1, Brazil, Gamma) (SARS-CoV-2); assay: as above
[6] = molecular target: SARS-CoV-2 spike (B.1.1.7, UK, Alpha) (SARS-CoV-2); assay: as above

Measured: ACE2-binding percent inhibition

ACE2 Calibration Reagent (included in the MSD kit)
100%: all assays above
